Here are results for eight molecules from patent US20240270793A1, “COMPOSITIONS” (UNIVERSITY OF SOUTHAMPTON, priority 2020, published 2024).

For data set [1] the following is noted: cited from earlier work.
The target of a further data set is T1, HIF-1α PAS-B (238-349) (Homo sapiens, UniProt Q16665).
T1 construct: human HIF-1α PAS-B (238-349); His tag; made in house; host or cells: E. coli BL21(DE3)-Rosetta, pET28a
Put plainly: MST binding to recombinantly expressed HIF-1α PAS-B domain. The method, then: Genes encoding for human HIF-1α PAS-B (238-349) and HIF-2α PAS-B (240-350) were each cloned into pET28a vectors at the BamHI and SacI restriction sites. The recombinant plasmids were next transformed into BL21(DE3)-Rosetta chemically competent cells. Cells were grown in LB media at 37° C. to an OD600 of 0.7, after which expression was induced by addition of 0.5 mM IPTG. Following overnight expression at 16° C., cells were pelleted and resuspended in buffer containing 50 mM Tris, 150 mM NaCl, 5% glycerol, 1 mM TCEP, protease inhibitors (Roche) and 20 mM imidazole, pH 8.0. Cells were lysed by sonication, and the supernatant applied to a 1 mL Histrap FF affinity column. The His-tagged protein of interest was eluted with buffer containing 50 mM Tris, 150 mM NaCl, 5% glycerol, 1 mM TCEP and 250 mM imidazole. The protein was then loaded onto a HiLoad 16/600 superdex 75 pg size exclusion column (GE healthcare) equilibrated with assay buffer containing 50 mM Tris, 150 mM NaCl, 5% glycerol and 1 mM TCEP, pH 8.0. Fractions containing the desired protein were flash-frozen and stored at −80° C. prior to use.
(§1) HIF-α proteins were labelled with Monolith NT-647 labelling dye (Nanotemper Technologies GmbH) according to the manufacturer's instructions. MST experiments were performed on a Monolith NT.115 system (Nanotemper Technologies GmbH), in assay buffer containing 50 nM labelled protein, 10% DMSO and 0.05% TWEEN-20. MST measurements were performed using 50% LED and 50% MST power.

A further data set has as its system HIF-2α/1α:HIF-1β RTHS. Put plainly: RTHS secondary screening, drop-spotting regrowth assay. It is filed as cell-based. The conditions noted are these: SICLOPPS-expressed peptide, control CAAAAA. The method, then: A screen for cyclic peptide inhibitors of HIF-2 dimerization was performed using SICLOPPS with a HIF-2 RTHS, using a method described previously.^8,9 (FIG. 1a). A secondary screen was then also conducted on the HIF-1 RTHS to compare selectivity, after which the hits found to inhibit both HIF-2 and HIF-1 were chosen for further review (FIG. 1b). SICLOPPS plasmids that produced a growth advantage in both systems were further screened in an unrelated p6/UEV RTHS to eliminate false positives (FIG. 1b).
It was expected that the similarity between these peptides would translate to a common structure-affinity relationship trend between the three, and that any differences in affinity could be used to inform optimisation efforts. In addition, all three peptides contained a basic side chain (arginine or lysine), which are protonated under physiological conditions, and would therefore aid solubility and potentially provide a useful polar interaction with the proteins themselves. […] The splicing efficiency of peptides from the Ssp intein may vary slightly depending on their sequence, thus resulting in different concentrations of peptide in the cell, which may therefore bias the extent of regrowth response.^10 It was therefore decided that to fully validate these hits, that the binding activity was to be assessed under in vitro assay conditions. […]

For data set [2], the system named is 1α PAS-B mutants C255A, C334A or C337A. Put plainly: MST binding to 1α PAS-B cysteine mutants. More on the design: species or system human. The conditions noted are these: mutations C255A.
Text: The potency imparted by the thiol motif raised the possibility of the interaction being disulfide-mediated. To counter this, all assays thus far had been performed with excess reducing agent tris(2-carboxyethyl)phosphine (TCEP) present in the buffers. Nonetheless the possibility was still considered due to the importance of the thiol moiety. As the HIF-α PAS-B domain contains multiple cysteines in internal cavities there remained the potential for disulfide bond formation within a solvent and TCEP-inaccessible region of the protein-peptide complex. Three 1α PAS-B mutants were therefore prepared with mutations C255A, C334A or C337A and the activity of the peptide CRLIIF [SEQ ID NO: 6, cyclic peptide #4] again tested by MST. It was anticipated that if a disulfide bond were to form with any of these then there would be a significant loss of binding for the peptide with the corresponding mutant.
as §1

Data set [3] addresses HIF (hypoxia inducible factor) in the YFP-reporter T-REx-293 (HEK) cell line. Put plainly: cell-based or functional assay.
Data set [4] addresses T2, human HIF-2α PAS-B (240-350), recombinant, His-tagged (human, UniProt Q99814 240-350, labelled with Monolith NT-647 dye for MST).
T2 construct: range 240-350; Expressed in E. coli BL21(DE3)-Rosetta from pET28a; also called PAS-B domain of HIF-2α; not shown: His tag from pET28a vector (BamHI/SacI cloning)
Put plainly: MST, HIF-2α PAS-B against HIF-1α PAS-B. The method, then: as §1

The target of data set [5] is T3, human HIF-1α PAS-B (238-349), recombinant, His-tagged (human, UniProt Q16665 238-349, labelled with Monolith NT-647 dye for MST).
T3 construct: range 238-349; Expressed in E. coli BL21(DE3)-Rosetta from pET28a; also called HIF-1α PAS-B domain; PAS-B domain of HIF-1α; not shown: His tag from pET28a vector (BamHI/SacI cloning)
Put plainly: MST, NT-647-labelled recombinant HIF-1α PAS-B. The method, then: as §1

In data set [6] the target is T2, human HIF-2α PAS-B (240-350), …. Put plainly: MST, NT-647-labelled recombinant HIF-2α PAS-B. The method, then: as §1
For data set [7], the target named is T3, human HIF-1α PAS-B (238-349), …. Put plainly: MST, HIF-1α PAS-B; bar chart of Kd (µM) for residues at position 6 of CRLIIF.
Data set [8] has the same target. Put plainly: MST, NT-647-labelled recombinant PAS-B domain. The method, then:
as §1

For data set [9], the target named is T2, human HIF-2α PAS-B (240-350), …. Put plainly: MST, NT-647-labelled recombinant PAS-B domain. The method, then: as §1
The target of data set [10] is T3, human HIF-1α PAS-B (238-349), …. Put plainly: MST, ratio of Kd on HIF-2α PAS-B to Kd on HIF-1α PAS-B.
Data set [11] shares this target. Put plainly: MST, peptide titrated against labelled HIF-1α PAS-B [bottom panel].
Data set [12] has as its target T2, human HIF-2α PAS-B (240-350), …. Put plainly: MST, peptide titrated against labelled HIF-2α PAS-B [bottom panel].
The target in data set [13] is T3, human HIF-1α PAS-B (238-349), …. Put plainly: MST, NT-647-labelled recombinant 1α PAS-B. The method, then:
as §1

Data set [14] shares this target. Put plainly: MST, peptide titrated against labelled HIF-1α PAS-B [middle panel].
Data set [15] concerns the target T2, human HIF-2α PAS-B (240-350), …. Put plainly: MST, peptide titrated against labelled HIF-2α PAS-B [middle panel].
Data set [16] has as its target T3, human HIF-1α PAS-B (238-349), …. Put plainly: MST, peptide titrated against labelled HIF-1α PAS-B [top panel].
Data set [17] addresses T2, human HIF-2α PAS-B (240-350), …. Put plainly: MST, peptide titrated against labelled HIF-2α PAS-B [top panel].

Square brackets hold non-standard residues; d marks the D form. Peptide text beside a SMILES is read from it. Phe(4-I) = N[C@@H](Cc1ccc(I)cc1)C(=O)O

T3 sequence (Q16665 238-349): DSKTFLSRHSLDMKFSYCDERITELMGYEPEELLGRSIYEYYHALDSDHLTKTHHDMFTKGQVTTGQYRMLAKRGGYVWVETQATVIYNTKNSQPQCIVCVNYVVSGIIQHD
T2 sequence (Q99814 240-350): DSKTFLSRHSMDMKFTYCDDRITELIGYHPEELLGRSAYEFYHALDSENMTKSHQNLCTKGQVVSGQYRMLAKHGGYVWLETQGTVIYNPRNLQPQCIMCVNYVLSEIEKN
T1 sequence (Q16665 238-349): as the sequence (Q16665 238-349) above

For the molecule “CLLFVY: previously reported selective inhibitor of HIF-1 dimerization, cyclic peptide Cys leu leu phe val tyr”, in data set [1], the “solubility of previously reported HIF-1 inhibitor” value is reported as “comparatively insoluble”.

For the molecule `CC[C@H](C)[C@@H]1NC(=O)[C@H](C(C)C)NC(=O)[C@H](CCCNC(=N)N)NC(=O)[C@H](CS)NC(=O)[C@H](Cc2ccccc2)NC(=O)[C@H]([C@@H](C)CC)NC1=O` [Cyclic peptide #3, cyclo-cys arg val ile ile phe] (cyclo(CRVIIF)), the “selectivity for 1α over 2α” value on HIF-1α PAS-B (238-349) (MST affinities, 1α vs 2α PAS-B) amounted to 2 fold. In addition, the “regrowth response in drop-spotting assay” value with HIF-2α/1α:HIF-1β RTHS is “greatest regrowth response”.

`CC[C@H](C)[C@@H]1NC(=O)[C@H](CC(C)C)NC(=O)[C@H](CCCNC(=N)N)NC(=O)[C@H](CS)NC(=O)[C@H](Cc2ccccc2)NC(=O)[C@H]([C@@H](C)CC)NC1=O` [Cyclic peptide #4, cyclo-cys agr leu ile ile phe] (cyclo(CRLIIF)): the “greater affinity than CKLLIF” value on HIF-1α PAS-B (238-349) (MST against 1α PAS-B) is “about 3 fold”. The “affinity for 1α PAS-B mutants compared to wild-type protein” value in data set [2] was “identical to that of the wild-type protein”.

B1: cyclo-cys arg leu ile ile (4-I)phe (peptide)
peptide: cyclo(CRLII[Phe(4-I)])
SMILES: CC[C@H](C)[C@@H]1NC(=O)[C@H](CC(C)C)NC(=O)[C@H](CCCNC(=N)N)NC(=O)[C@H](CS)NC(=O)[C@H](Cc2ccc(I)cc2)NC(=O)[C@H]([C@@H](C)CC)NC1=O
notes: also called CRLIIF(4I); Cyclo-CRLIIF(4-I)
Molecule B1 had an IC50 in the YFP reporter assay (HRE-driven YFP in T-REx-293 cells, hypoxia) in data set [3] of 35 µM. Also, the “fold loss in Kd compared to the 1α isoform” value in data set [4] turned out to be 2.2 fold. In addition, in data set [5], the Kd (as a rule, the constant that tells how readily two partners part at equilibrium) turned out to be 850 nM and the “fold improvement in affinity relative to the parent compound CRLIIF” value was determined as 4.5 fold. Besides, the Kd in data set [6] turned out to be 1900 nM.

B2: cyclo-cys arg leu ile ile tyr (peptide)
peptide: CRLIIY
modifications: head-to-tail cyclic (cyclo-)
notes: also called Cyclo-CRLIIY; cyclic peptide #29
Consider B2, for which the binding result in [7] is “binds”.

For CRVIIF (head-to-tail cyclic (cyclo-), also called CRVIIF; cyclic peptide #3) [cyclo-cys arg val ile ile phe], the Kd is 61 µM in [8], 118 µM in [9], 65.5 µM in data set [11] and 123 µM in data set [12]. Moreover, in data set [10], the “fold selectivity for 1α over 2α” value was about 2 fold.

For CRLLIF (head-to-tail cyclic (cyclo-), also called CRLLIF; cyclic peptide #2) [cyclo-cys arg leu leu ile phe], the dissociation constant (Kd) in data set [13] amounted to 14 µM; in [14], 14.5 µM; in data set [15], 10.2 µM.

For the molecule CKLIIF (head-to-tail cyclic (cyclo-), also called CKLIIF; cyclic peptide #1) [cyclo-cys lys leu ile ile phe], the Kd is 2.5 µM in data set [13]; about 2 µM in data set [8]; about 2 µM in data set [9]; 2600 nM in data set [16]; 2200 nM in data set [17].
